Laboratory results reported in the nanobody polyreactivity screen of Harvey et al. (2022).

Experiment: yeast display, Sf9 membrane polyspecificity reagent, FACS + sequencing; frameworks hold sequencing errors
Procedure, shortened: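 Galactose-induced (36–48 hours) yeast carrying a synthetic nanobody display library were exposed to 10% biotinylated, detergent-solubilized Sf9 membrane reagent at 4 °C for 1 hour. FACS followed streptavidin microbead enrichment, using low and high (top ~1%) gates for expression (anti-HA) and reagent binding (streptavidin). Colony PCR, MiSeq 2 × 250 sequencing and CDR-length filtering followed. Labels for polyreactivity reflect the gate of origin.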

Row | Sequence | polyreactivity (PSR sort gate)
1 | QVQLVESGGGLVQAGGSLRLSCAASGRIFSYNAMGWYRPAPGKEREIVAGITKSGDDTFYADSVKGRFTISRDNAKNTVYLQMNSLKPQDTAVYYCAAASNPRYYTNRMVYWGQGTQVTVSS | low polyreactivity
2 | QVQLVESGGGLVQAGGSLRLSCAASGSIFYNNAMGWYRQAPGKERELVAAISLRGGSTYYADSVKGRFTISRDNAKNTVYLQMNSLKPEDTAVYYCAAGVRSPFRGGYYWGQGTQVTVSS | high polyreactivity
3 | QVQLVESGGGLVQAGGSLRLSCDASGRTSRWNAMGCYRQAPGKERELVAAISSGSSTTYADSVKGRFTISRDNAKNTVYLQMNSLKPEATAVYYCNAKSGSRFVYRRYYTYNSWGQGTQVTVSS | high polyreactivity
4 | QVQLVESGGGLVQAGGSLRLSCAASGFIFAYNAMGWYRQAPGKERELVAGISRRGGSTYYADSVKGRFTISRDNAKNTVYLQMNSLKPEDTAVYYCAADSFTYWSWLHGYWGQGTQVTVSS | high polyreactivity
5 | QVQLVESGGGLVQAGGSLRLSCAASGSIFLYYTMGWYRQEPGKERELVAAITWSGSSTYYADSVKGRFTISRDNAKNTVYLQMNSLKPEDTAVYYCATRYRYRYWGQGTQVTVSS | high polyreactivity
6 | QVQLVESGGGLVQAGGSLRLSCAASGRIFDNYVMGWYRQAPGKERELVAAISSGGGTYYADSVKGRFTISRDNAKNTVYVQMNSLKPEDTAVYYCAKRRVYDRSFGRYDYWGQGTQVTVSS | low polyreactivity
7 | QVQLVDSGGGLVQAGGSLLLSCAASGFTFTIYAMGWNRQAPGKERELVATISGRAGRTYYADSVKGRFTISRDNAKNTVYLQMNSLKPEDTAVYYCNAGQWRYPGLYYYWGQGTQVTVSS | high polyreactivity
8 | QVQLVESGGGLVQAGGSLRLSCAASGSTFYYYAMGWYRQAPGKERELVAAISTSDGSTYYADSVKGRFTISRDNAKNTVYLQMNSLKPEDTAVYYCAAESYERFPSYYYWGQGTQVTVSS | low polyreactivity
9 | QVQLVESGGGLVQAGGSLRLSCAASGFTSSAYAMGWYRQEPGKESELVAVISRSGGRTYYADSVKGRFTISRDNAKNTVYLQMNSLKPEDTADYYCAAEYGVYNIHFPGYDYWGQGTQVTVSS | high polyreactivity
10 | QVQLVESGGGLVQAVGSLRLSCAASGFISKYYAMGWYRQAPGKERELVASISRDGSTSYADSVKGRFTISRDNAKNTVYLQMNSLKPEDTAVYYCAAPSYRTRYYYWGQGTQVTVSS | high polyreactivity
11 | QLHLVESGGGLVQAGGSLRLSCAASGITFAGYALGWYRQAPGKERELVASITWGGGRTYYADSVKGRFTSSRDNAKNTVYLQMNSLKPEATAVYYCATRRRPQYNKYDYWGQGTQLTVSS | high polyreactivity
12 | QVQLVESGGGLVQAGGSLRFSCAASGSTFTAYVMGWYRQAPGKERELVAAISRSGGRTYYADSVKGRFTISRDNAKKTVYLQMNSLKPEDTAVYYCAARSGPLAYDYWGQGTQVTVSS | high polyreactivity
13 | QVQLVESGGGLVQAGGSLRLSCAASGSIFNYNMGWYRQAPGKERELVAAITSSGGSTYYADSVKGRFTISRDNAKNTVYLQMNSLKPEDTAVYYCAAPISRSAGWDSYDYWGQGTQVTVSS | low polyreactivity
14 | QVQLVESGGGLVQAGGSLRLSCAASGSIFYTNAMGWYRQAPGKERELVAAISCSGDSTYYADSVKGRFTISRDNAKNTVYLQMNSLKPEDTAVYYCNADRRSYNGFRYYYWGQGTQVTVSS | low polyreactivity
15 | QVQLVESGGGLVLAGGSLRLSCAASGFTFFIYVMGWYRQAPGKEREFVAAISSSGDSTYYADSVKGRFTISRDNAKNTVYLQMNSLKPEDTAVYYCNAGDKFSSYWYDYWGQGTQVTVSS | low polyreactivity
16 | QVQLVESGGGLVQAGGSLRLSCAASGRIIDANVMGWYRQAPGKERELVAAISASAGSTSYADSVKGRFTISRDNAKNTVYLQMNSLKPEDTAVYYCAADPYQLWHYYYFGMDYWGQGTQVTVSS | low polyreactivity
17 | QVQLVESGGGLVQAGGSLRLSCAASGSTFTVYAMGWYRLAPGKERELVAAISGSGGRTYYADSVKGRFTISRDNAKNTVYLQMNSLKPEDTAVYYCIARWGYRRGYWGQGTQVTVSS | high polyreactivity
18 | QDQLVDSGGGLVQAGGSLRLSCAASGYTFWDYAMGWYRQAPGKEREFVAGISFSDGGTYYADSVKGRFTISRDNAKNTVYLQMNSLKPEDTAVYYCAATYPYSWVYSGYYYWGQGTQVTVSS | low polyreactivity
19 | QVQLVESGGGLVQAGGSLRLSCAASGSIFSAKTMGWYRQAPGKERELVAAISSSGGRTYYADSVKGRFTISRDHAKNTVYLQMNSLKPEDTAVYYSNARSRYHVTPYSGVTGYDYWGQGTQVTVSS | high polyreactivity
20 | QVQLVESWGGLVQAGGSLRLSCAASGLIFQTYTMGWYKQAPGKERELVAAITSSGGRTYYADSVKGRFTISRDNAKNTVYLQKNSLKPEDTAVYYCAARGPPSAGMGYWGQGTQVTVSS | high polyreactivity
21 | QVQLVESGGGLVQAGGCLRLSCAASGRTLGAYAMGWYRQAPGKEREFVASITYGGRTCYADSVKGRFTISRDNAMNTVFLQMNSLKPEDSAVYYCASKLPYRWYDYWGQGTQVTVSS | high polyreactivity
22 | QVQLVESGGGLVQAGGSLRLSCAASGSTFTYYSMGWDRQAPGKERELVAAISSNGGSTSYADSVKGRFTISRDNAKNTVYLQMNSLKPEDTAVYYCAAQVPLFGRYYWGQGTQVTVSS | high polyreactivity

Row | Sequence | polyreactivity (PSR sort gate)
23 | QVQLVESGGGLVQAGGSLRLSCGASGFISTYYAMGWYRQAPGKERELVAAISWNGGSTYYADSVKGRFTISRDNAKNTVYLQMNSLKPEDTAVYYCAAYLGKWRHFYSSDYDYWGQGTQVTVSS | low polyreactivity
24 | QVQLVESGGGLVQAGGSLRLSCAASGSTLSDYVMGWYRQAPGKERELVAAITSGGSTSYADSVKGRFTISRDNAKNTVYLQMNSLKPEDTAVYYCNATLLFPLLYGPESGEFDYWGQGTQVTVSS | low polyreactivity
25 | QVQLVESGGGLVQAGGSLRLSCAASGRTIQWYAMGWYRQAPGKERELVAGISFSGGSTYYADSVKGRFTISRDNAKNTVYLQMNSLKPEDTAVYYCNAQGYTTYRGDYWGQGTQVTVSS | high polyreactivity
26 | QVQLVESGGGLVQAGGSLRLICAASGRIFFIYAMGWYRQAPGKERELVAGINRTGGSTYYADSVKGRFTISRDNAKNSVYLHMNSLKPEDTAVYYCAAVSYYASDYRYDYWGKGTQVTVSS | low polyreactivity
27 | QVQLVESGGGLVQAGGSLRLSCAASGSIFRPNVMGWYRQEPGKERELVATISWSGGSTYYADSVKGRFTISRDNASNTVYLQMNSLKPEDTAVYYCAALWPYGYWGQGTEVTVSS | low polyreactivity
28 | QVQLVESGGGLVQAGGSHRLSCAASGSIFTRNVMGWYRQAPGKERELVAAITSAGSTYYADSVKGRFTISRDNAKNNVYLQMTSLNPEDTAVYNCDAKVYYPYLFTSYDYWGQGTQVTVSS | high polyreactivity
29 | QVQLVESGGGLVQAGGSLLLSCAASGLIFSGYAMGWYRQAPGKERELVAAISRTVGTTYYADSVKGRFTISRDNGKNPVYLQMNSLKPEDTAVYYCAARGRATLYDYWGQGTQVTVSS | high polyreactivity
30 | QVQLVESGGGLVQAGGSLRLSCAATGSTIEANTMGWYRQAPGKERELVASITTSGGSTNYADSVKGRFTISRDNAKNTVYLQMNSLKPEDTAVYYCAVRSTYARWNWRTADSSRDYWGQGTQVTVSS | low polyreactivity
31 | QVQLVESGGGLVQAGGSLRLSCAASGRIFRSYAMGWYRQAPGKERELVAAITWSGGSTYYADSVKGRFTISRDNAKNTVYLQMHSLKPEDTAVYYCARVVTKKYSHTGYEYWGQGTQVTVSS | high polyreactivity
32 | QVQLVESGGGLVQAGGSLRLSCAASGRTFRRYAMGWYRQAPGKERELVAAISKSGGRTYYADSVKGRFTISRDNAKNTVYLQMNSLKPEDTAVYYCAADHIQTAGGDYWGQGTQVTVSS | high polyreactivity
33 | QVQLQESGGGLVQAGGTLRLSCQASGSIFVSVTMGWYRQAPGKERELVASIGRGSTTNHADSVKGRFTISRDNAKNIVYLLMNSLKPEDTAVYYCAALESYGKYHGYWGQGTQVTVSS | low polyreactivity
34 | QVQLVESGGGLVQAGGSLRLSCAASGLTFTYYAMGWYRQAPGKERELVAVISRRGGSTYYADSVKGRFTISRDNAKNTVYLQMNSLKPEDTAVYYCAATNLQSAYDYWGHGTQVTVSS | high polyreactivity
35 | QVQLVESGGGLVQAGGSLRLSCAASGGIFGRYAMGWYRQAPGKERELVAAISKRGGSTYYADSVKGRFTISRDNAKNTVYLQMNSLKPEDTAVYYCNAKRSLFGRYGYWGQGTQVTVSS | high polyreactivity
36 | QVQLVESGGGLVQAGGSLRLICAASGSTNPRNAMGWYRQAPGKERELDADITSGGSTNYADSVKGRFTISRDNAKNTVYLQMNRLKPEDTAVYYCAADEQVNTQYVVWGDYWGQGTQVTVSS | low polyreactivity
37 | QVQLVESGGCLVQAGGSLRLSCSSSGSTFEYNAIGWYRQAPGKERELVAAIRSSSSTHYADSVKGRFTISRDNAKNTVYLQMNSLKPEDTAVYYFNTDAHYYDHWGQGTQVTVSS | low polyreactivity
38 | QVQLVESGGGLVQAGGSLRLSCAASGRIFSVYAMGWYRQAPGKERELVAAITNGGRTNYADSVKGRFTISRDNAKNTVYLQMNSLKPEDTAVYYCATDPVKSGYQRYYYWGQGTQVTVSS | low polyreactivity
39 | QVQLVESGGGVVQAGGSLRLSCAASGRIFIWYDMGWYRQAPGKERELVAAITQSDDITYYADSVKGRFTISRDNAKNTVYLQMNSLKPEDTAVYYCAARVFETSTPYGYWGQGTQVTVSS | low polyreactivity
40 | QVQLVESGGGLVQAGGSLRLSCAASGIIFVGYAMGWYRQAPGKERELVAGINCGGSTNYADSVKGRFTISRDNAKNTVYFQMNSLKPEDTAVYYCAAYPFDYYGYDYWGLGTQVTVSS | low polyreactivity
41 | QVQLVESAGGLVQAGGSLPLSCAASGSTFASNTMGWYRQAPGKERELVAAITQSGGTTYYADSVKGRFTISRDNAKNTVSLQMNSLKPEDTAVYYCATDVGYFYTVVGGYDYWGTGTQVTVSS | low polyreactivity
42 | QVQLVESGGGLVQAGGSLRLSCAASGRIFTQYAMGWYRPAPGKERELVAAINASDGSTYADSVKGRFTISRDNAKNTVYLQMNSLKPEDPAVYYCNVTGGPYDFTRWSEFDHWGQGTQVTVSS | low polyreactivity
43 | QVQLLESGGGLVQAGGCLRLSCAASGFTFYGYARGWYRQAPGIERELVAGIAKCGTRTYYADSLKGRFTISRDNAENTVFFQMNSLKPEDTAVYYCAARLRRGLTATWYYYWGQGSQVTVSS | high polyreactivity
